In US20110105394A1 (Novo Nordisk, published 2011):
*1 amine or outer side, *2 acyl side, *3 side chain or, on linkers, in order; H or OH if unused. Bridges are numbered along the chain shown (N, C = ends). The star is where a group is joined. C20 diacid = O=C(O)CCCCCCCCCCCCCCCCCCC(=O)*; γGlu = O=C(O)[C@H](CCC(=O)[*:2])N[*:1]

T1: Amylin 3(a) receptor (human calcitonin receptor (CTa) with RAMP-3) (human) (UniProt P30988)
T1 sequence (looked up) 1: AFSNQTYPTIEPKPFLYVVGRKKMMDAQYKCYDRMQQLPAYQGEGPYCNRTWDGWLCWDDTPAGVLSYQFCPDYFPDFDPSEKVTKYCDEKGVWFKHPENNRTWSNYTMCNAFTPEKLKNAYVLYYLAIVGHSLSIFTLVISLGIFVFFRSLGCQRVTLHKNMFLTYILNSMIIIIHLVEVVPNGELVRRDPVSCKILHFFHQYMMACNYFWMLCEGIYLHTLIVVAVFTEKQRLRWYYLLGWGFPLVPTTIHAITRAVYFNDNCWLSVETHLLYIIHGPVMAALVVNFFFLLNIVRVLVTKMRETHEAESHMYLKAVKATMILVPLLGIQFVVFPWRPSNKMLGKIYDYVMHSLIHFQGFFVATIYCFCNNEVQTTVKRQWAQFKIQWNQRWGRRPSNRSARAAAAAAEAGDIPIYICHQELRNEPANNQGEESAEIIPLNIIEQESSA
T1 sequence (looked up) 2: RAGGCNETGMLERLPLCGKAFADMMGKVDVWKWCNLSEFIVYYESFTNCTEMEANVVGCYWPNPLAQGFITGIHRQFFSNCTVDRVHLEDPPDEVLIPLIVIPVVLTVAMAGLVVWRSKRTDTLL

B1: N-alpha-[(S)-4-Carboxy-4-(19-carboxynonadecanoylamino)butyryl]-Glu-His-His-[Arg1,Arg17,Gln21]-pramlintide (peptide)
peptide: {C20 diacid-γGlu}-EHHRCNTATCATQRLANFLRHSSQNFGPILPPTNVGSNTY-NH2
modifications: disulfide 5-10
SMILES: CC[C@H](C)[C@H](NC(=O)[C@@H]1CCCN1C(=O)CNC(=O)[C@H](Cc1ccccc1)NC(=O)[C@H](CC(N)=O)NC(=O)[C@H](CCC(N)=O)NC(=O)[C@H](CO)NC(=O)[C@H](CO)NC(=O)[C@H](Cc1c[nH]cn1)NC(=O)[C@H](CCCNC(=N)N)NC(=O)[C@H](CC(C)C)NC(=O)[C@H](Cc1ccccc1)NC(=O)[C@H](CC(N)=O)NC(=O)[C@H](C)NC(=O)[C@H](CC(C)C)NC(=O)[C@H](CCCNC(=N)N)NC(=O)[C@H](CCC(N)=O)NC(=O)[C@@H](NC(=O)[C@H](C)NC(=O)[C@@H]1CSSC[C@H](NC(=O)[C@H](CCCNC(=N)N)NC(=O)[C@H](Cc2c[nH]cn2)NC(=O)[C@H](Cc2c[nH]cn2)NC(=O)[C@H](CCC(=O)O)NC(=O)CC[C@H](NC(=O)CCCCCCCCCCCCCCCCCCC(=O)O)C(=O)O)C(=O)N[C@@H](CC(N)=O)C(=O)N[C@@H]([C@@H](C)O)C(=O)N[C@@H](C)C(=O)N[C@@H]([C@@H](C)O)C(=O)N1)[C@@H](C)O)C(=O)N[C@@H](CC(C)C)C(=O)N1CCC[C@H]1C(=O)N1CCC[C@H]1C(=O)N[C@H](C(=O)N[C@@H](CC(N)=O)C(=O)N[C@H](C(=O)NCC(=O)N[C@@H](CO)C(=O)N[C@@H](CC(N)=O)C(=O)N[C@H](C(=O)N[C@@H](Cc1ccc(O)cc1)C(N)=O)[C@@H](C)O)C(C)C)[C@@H](C)O
B2: N-alpha-[(S)-4-Carboxy-4-(19-carboxynonadecanoylamino)butyryl]-Glu-His-His-[Arg1,His17]-pramlintide (peptide)
peptide: {C20 diacid-γGlu}-EHHRCNTATCATQRLANFLHHSSNNFGPILPPTNVGSNTY-NH2
modifications: disulfide 5-10
SMILES: CC[C@H](C)[C@H](NC(=O)[C@@H]1CCCN1C(=O)CNC(=O)[C@H](Cc1ccccc1)NC(=O)[C@H](CC(N)=O)NC(=O)[C@H](CC(N)=O)NC(=O)[C@H](CO)NC(=O)[C@H](CO)NC(=O)[C@H](Cc1c[nH]cn1)NC(=O)[C@H](Cc1c[nH]cn1)NC(=O)[C@H](CC(C)C)NC(=O)[C@H](Cc1ccccc1)NC(=O)[C@H](CC(N)=O)NC(=O)[C@H](C)NC(=O)[C@H](CC(C)C)NC(=O)[C@H](CCCNC(=N)N)NC(=O)[C@H](CCC(N)=O)NC(=O)[C@@H](NC(=O)[C@H](C)NC(=O)[C@@H]1CSSC[C@H](NC(=O)[C@H](CCCNC(=N)N)NC(=O)[C@H](Cc2c[nH]cn2)NC(=O)[C@H](Cc2c[nH]cn2)NC(=O)[C@H](CCC(=O)O)NC(=O)CC[C@H](NC(=O)CCCCCCCCCCCCCCCCCCC(=O)O)C(=O)O)C(=O)N[C@@H](CC(N)=O)C(=O)N[C@@H]([C@@H](C)O)C(=O)N[C@@H](C)C(=O)N[C@@H]([C@@H](C)O)C(=O)N1)[C@@H](C)O)C(=O)N[C@@H](CC(C)C)C(=O)N1CCC[C@H]1C(=O)N1CCC[C@H]1C(=O)N[C@H](C(=O)N[C@@H](CC(N)=O)C(=O)N[C@H](C(=O)NCC(=O)N[C@@H](CO)C(=O)N[C@@H](CC(N)=O)C(=O)N[C@H](C(=O)N[C@@H](Cc1ccc(O)cc1)C(N)=O)[C@@H](C)O)C(C)C)[C@@H](C)O

Target: T1, Amylin 3(a) receptor (human calcitonin receptor (CTa) with RAMP-3) (human)
Assay: cell-based or functional assay

Binder	Potency Luciferase [pmol/L]
B1	100
B2	100
